# In patent US20230374147A1 (HUMMINGBIRD BIOSCIENCE PTE, published 2023):
# Like-named read-outs stand apart in the source and are kept apart here.
# Tests used:
# [1] = molecular target: T1, human BCMA expressed on cells (human, UniProt Q02223 1-184); assay: flow cytometry, HEK293 cells stably expressing human BCMA
# T1 construct: the cell line is named under assay; also called wildtype human BCMA
# T1 sequence: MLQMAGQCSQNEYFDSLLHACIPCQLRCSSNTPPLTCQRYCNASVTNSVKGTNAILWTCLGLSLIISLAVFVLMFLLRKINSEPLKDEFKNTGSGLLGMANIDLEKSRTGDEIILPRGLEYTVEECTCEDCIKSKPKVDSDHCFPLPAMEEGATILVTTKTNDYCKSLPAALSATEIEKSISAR
# [2] = molecular target: T2, His-tagged mouse BCMA (Acro Biosystems, BCA-M52H3) (mouse, UniProt O88472 1-49); assay: BLI, His-tagged mouse BCMA on HIS1K tip
# T2 construct: Bought protein; not shown: His tag
# T2 chain: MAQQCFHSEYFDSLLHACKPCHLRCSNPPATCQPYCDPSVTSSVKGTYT
# [3] = molecular target: T3, His-tagged human BCMA (Acro Biosystems, Cat. #BCA-H522y) (human, UniProt Q02223 1-54); assay: ELISA, coated His-tagged human BCMA
# T3 construct: also called huBCMA; P1; not shown: His tag
# T3 sequence: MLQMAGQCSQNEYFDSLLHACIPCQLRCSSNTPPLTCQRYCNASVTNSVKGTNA
# [4] = molecular target: T3, His-tagged human BCMA (Acro Biosystems, …); assay: BLI, His-tagged human BCMA on HIS1K tip, no APRIL; R2 0.9908
# [5] = molecular target: T3, His-tagged human BCMA (Acro Biosystems, …); assay: BLI, His-tagged human BCMA on HIS1K tip
# [6] = molecular target: T3, His-tagged human BCMA (Acro Biosystems, …); assay: BLI, His-tagged human BCMA on HIS1K tip; R2 0.9908
# [7] = molecular target: T4, recombinant his-tagged human TACI (Sinobiological cat #11937-H08H) (human, UniProt O14836 1-165); assay: ELISA, coated His-tagged human TACI
# T4 construct: Bought protein; also called Human TACI-His; huTACI; not shown: His tag
# T4 sequence: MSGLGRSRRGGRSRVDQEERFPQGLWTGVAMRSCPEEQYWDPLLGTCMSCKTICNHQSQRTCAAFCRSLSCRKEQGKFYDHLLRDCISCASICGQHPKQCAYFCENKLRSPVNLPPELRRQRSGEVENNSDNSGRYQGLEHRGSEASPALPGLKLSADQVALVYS
# [8] = molecular target: T2, His-tagged mouse BCMA (Acro Biosystems, …); assay: BLI, His-tagged mouse BCMA on HIS1K tip; R2 0.2661, below the filing's cut-off of 0.9
# [9] = molecular target: T5, cynomolgous macaque BCMA expressed on CHOK1 cells; assay: flow cytometry, CHOK1 cells transiently expressing cynomolgus BCMA
# T5 construct: also called cyno BCMA on cells
# [10] = molecular target: T5, cynomolgous macaque BCMA expressed on …; assay: as above; remark: listed apart in the source
# [11] = molecular target: T4, recombinant his-tagged human TACI …; assay: ELISA, coated His-tagged human TACI; remark: listed apart in the source
# [12] = molecular target: T6, His-tagged cynomolgous macaque BCMA (Acro Biosystems, BCA-C52H7) (cynomolgus macaque, UniProt Q02223 1-54 (human entry)); assay: BLI, His-tagged cynomolgus BCMA on HIS1K tip; R2 0.9552
# T6 construct: Bought protein; also called cyno BCMA; CyBCMA; not shown: His tag
# [13] = molecular target: T1, human BCMA expressed on cells; assay: flow cytometry, H929 cells (BCMA-expressing)
# [14] = molecular target: T3, His-tagged human BCMA (Acro Biosystems, …); assay: BLI, His-tagged human BCMA on HIS1K tip; R2 0.9928
# [15] = molecular target: T6, His-tagged cynomolgous macaque BCMA …; assay: BLI, His-tagged cynomolgus BCMA on HIS1K tip
# [16] = molecular target: T3, His-tagged human BCMA (Acro Biosystems, …); assay: BLI, His-tagged human BCMA on HIS1K tip, no APRIL; R2 0.9928
# [17] = molecular target: T6, His-tagged cynomolgous macaque BCMA …; assay: ELISA, coated His-tagged cynomolgus BCMA
# [18] = molecular target: T3, His-tagged human BCMA (Acro Biosystems, …); assay: BLI, His-tagged human BCMA on HIS1K tip; R2 0.9933
# [19] = molecular target: T3, His-tagged human BCMA (Acro Biosystems, …); assay: ELISA, coated His-tagged human BCMA; remark: listed apart in the source
# [20] = molecular target: T6, His-tagged cynomolgous macaque BCMA …; assay: BLI, His-tagged cynomolgus BCMA on HIS1K tip; R2 0.9421
# [21] = molecular target: T3, His-tagged human BCMA (Acro Biosystems, …); assay: BLI, His-tagged human BCMA on HIS1K tip, no APRIL; R2 0.9933
# [22] = molecular target: T1, human BCMA expressed on cells; assay: flow cytometry, HEK 293 cells expressing human BCMA
# [23] = molecular target: T1, human BCMA expressed on cells; assay: flow cytometry, HEK293 cells stably expressing human BCMA; remark: listed apart in the source
# [24] = molecular target: T3, His-tagged human BCMA (Acro Biosystems, …); assay: BLI, His-tagged human BCMA on HIS1K tip, no APRIL; R2 0.9939
# [25] = molecular target: T7, BCMA:APRIL 1:1 (human, UniProt Q02223;O75888); assay: BLI, His-tagged human BCMA on tip, then human APRIL 3000 nM, then IgG; R2 0.9805
# T7 construct: His-tagged recombinant;recombinant; also called human BCMA after incubation with human APRIL
# T7 sequence (receptor, looked up): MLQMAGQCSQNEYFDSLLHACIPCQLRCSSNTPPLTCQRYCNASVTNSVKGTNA
# T7 sequence (ligand, looked up): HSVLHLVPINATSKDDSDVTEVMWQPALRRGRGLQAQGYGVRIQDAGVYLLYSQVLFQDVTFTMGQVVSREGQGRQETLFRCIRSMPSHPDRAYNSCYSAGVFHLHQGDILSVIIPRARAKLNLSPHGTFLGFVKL
# [26] = molecular target: T6, His-tagged cynomolgous macaque BCMA …; assay: BLI, His-tagged cynomolgus BCMA on HIS1K tip; R2 0.9296
# [27] = molecular target: T3, His-tagged human BCMA (Acro Biosystems, …); assay: BLI, His-tagged human BCMA on HIS1K tip; R2 0.9939
binder,measurement,setting,value
"539-SP2-H3 hIgG1 (antibody, V domains shown, Human-mouse chimeric antibody, human IgG1 format) VH: EVQLQQSGPELVKPGASVKMSCKASGYTFTSYVIHWVKQKPGQGLEWIGYVLPYNDVIKYNEKFKGKATLTSDKSSSTAYMDLSSLTSEDSAVYYCARWGDFDEGIWFPYWGQGTLVTVSA VL: DVLMTQTPLSLPVSLGDHASVSCRSSQSIVHTDGNTYLEWYLQKPGQSPKLLIYKVSNRFSGVPDRFSGSGSGTDFTLKISRVEAEDLGVYYCFQGSHVPWTFGGGTKLEIKR",EC50 (read off the curve),[1],~0.06 µg/mL
same,Mouse BCMA response,[2],0.29
same,EC50 (read off the curve),[3],~0.01 µg/mL
same,Kd,[4],< 0.001 nM
same,Human BCMA response,[5],2.36
same,Kd,[6],< 0.001 nM
same,EC50 (read off the curve),[7],~0.7 µg/mL
same,Kd,[8],7.25 nM
same,binding result,[9],binds
"552-LN2-E6 hIgG1 (antibody, V domains shown, Human-mouse chimeric antibody, human IgG1 format; also called [8]) VH: QIQLVQSGPELKKPGETVKISCMASGYTFTDYSVRWVKQAPGKGLEWMGWINTETGEPTYADDFKGRFAFSLETSASTAYLQINNLKNEDTATYFCAISYYYALDYWGHGTSVTVSS VL: DIVLTQSPASLTVSLGQRATISCRASKSVSTSVYSFLHWYQQKPGQPPKLLIYLASNLESGVPARFSGSGSGTDFTLNIHPVEEEDAATYYCQHSRELPRTFGGGTKLEIKR",binding result,[10],binds
same,binding result,[11],no binding (tested: 10 ug/ml)
same,Kd,[12],38.5 nM
same,EC50 (read off the curve),[13],~0.3 µg/mL
same,Kd,[14],< 0.001 nM
same,Human BCMA response,[5],2.37
same,Cyno BCMA response,[15],1.55
same,Kd,[16],< 0.001 nM
same,EC50 (read off the curve),[17],~0.08 µg/mL
"552-LN1-E9 hIgG1 (antibody, V domains shown, Human-mouse chimeric antibody, human IgG1 format; also called [6]) VH: QIQLVQSGPELKKPGETVKISCKASGYTFTDYSIYWVKQAPGKGLKWMGWINTETGEPTYADDFKGRFAFSLETSASSAYLQINTLKNEDTATYFCSISYYYAMDYWGQGTSVTVSS VL: DIVLTQSPASLAVSLGQRATISCRASKSVSTSGYSFLHWYQQKPGQPPKLLIYFASNLESGVPARFSGSGSGTDFTLNIHPVEEEDAATYYCQHSRELPRTFGGGTKLEIKR",Kd,[18],< 0.001 nM
same,binding result,[10],binds
same,binding result,[11],no binding (tested: 10 ug/ml)
same,EC50,[19],0.081 nM
same,EC50 (read off the curve),[13],~0.05 µg/mL
same,Human BCMA response,[5],2.76
same,Kd,[20],32.6 nM
same,Cyno BCMA response,[15],1.8
same,Kd,[21],< 0.001 nM
same,EC50 (read off the curve),[17],~0.08 µg/mL
same,EC50,[22],0.65 nM
same,EC50 (read off the curve),[23],~0.1 µg/mL
"552-LN1-F4 hIgG1 (antibody, V domains shown, Human-mouse chimeric antibody, human IgG1 format; also called [7]) VH: QIQLVQSGPELKKPGETVKISCMASGYTFTDYSVRWVKQAPGKGLEWMGWINTETGEPTYAHDFKGRFAFSLETSASTAYLQINNLKDEDTSTYFCAISYYYALDYWGHGTSVTVSS VL: DIVLTQSPASLTVSLGQRATISCRASKSVSTSGYNFLHWYQQKPGQPPKLLIYLASNLESGAPARFSGSGSGTDFTLNIHPVEEEDAATYYCQHSRELPRTFGGGTKLEIKR",binding result,[10],binds
same,Kd,[24],< 0.001 nM
same,binding result,[11],no binding (tested: 10 ug/ml)
same,Kd,[25],9.61 nM
same,Kd,[26],71 nM
same,EC50 (read off the curve),[13],~0.2 µg/mL
same,Human BCMA response,[5],2.33
same,Cyno BCMA response,[15],0.918
same,Kd,[27],< 0.001 nM
